Like-named read-outs stand apart in the source and are kept apart here. Where only a bound is given, the exact number is not on record here.

Data on eleven molecules can be found in publication PMC10881500, “Structure-guided engineering of immunotherapies targeting TRBC1 and TRBC2 in T cell malignancies” (Nature Communications, 2024).

Experiment [1] deals with T1, TCR with the TRBC1 β-chain constant domain, on cells (Homo sapiens, UniProt P01848;P01850).
Target sequence in this assay (P01848 whole entry, chain 1 of 2, the tested form may be a part): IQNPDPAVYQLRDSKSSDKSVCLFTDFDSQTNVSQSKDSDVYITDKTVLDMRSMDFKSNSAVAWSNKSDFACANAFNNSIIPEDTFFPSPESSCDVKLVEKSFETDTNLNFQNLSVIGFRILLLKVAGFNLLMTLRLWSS
Target sequence in this assay (P01850 whole entry, chain 2 of 2, the tested form may be a part): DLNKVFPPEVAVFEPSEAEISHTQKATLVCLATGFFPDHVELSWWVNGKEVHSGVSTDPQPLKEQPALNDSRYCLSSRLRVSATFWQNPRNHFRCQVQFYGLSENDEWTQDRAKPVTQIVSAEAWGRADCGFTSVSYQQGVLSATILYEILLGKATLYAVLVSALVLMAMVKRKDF
Experiment [2] has as its target T2, Recombinant, purified TRBC1 (soluble αβ TCR with the β-chain constant domain TRBC1), SPR analyte (Homo sapiens, HA1.7 TCR with TRBC1).
Target sequence in this assay (main, as listed by the source, chain 1 of 2): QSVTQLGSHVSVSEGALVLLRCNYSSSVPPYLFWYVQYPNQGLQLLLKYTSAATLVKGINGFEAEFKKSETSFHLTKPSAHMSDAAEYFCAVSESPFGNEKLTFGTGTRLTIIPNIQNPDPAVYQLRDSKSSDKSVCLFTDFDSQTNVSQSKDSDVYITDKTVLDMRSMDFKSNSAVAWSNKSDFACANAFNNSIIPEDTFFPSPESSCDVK
Target sequence in this assay (partner, as listed by the source, chain 2 of 2): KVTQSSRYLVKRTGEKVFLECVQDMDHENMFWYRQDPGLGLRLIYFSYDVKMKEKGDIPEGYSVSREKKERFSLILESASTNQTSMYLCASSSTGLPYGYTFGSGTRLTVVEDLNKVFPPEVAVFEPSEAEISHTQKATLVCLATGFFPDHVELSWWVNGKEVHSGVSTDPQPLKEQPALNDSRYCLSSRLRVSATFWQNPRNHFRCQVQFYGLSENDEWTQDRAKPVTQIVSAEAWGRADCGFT
The target in experiment [3] is T2, Recombinant, purified TRBC1 (soluble αβ …). The experiment in a line: SPR; Biacore T200; scFv-Fc captured on a Series S Protein A chip to 50 RU; TRBC1 or TRBC2 as analyte, 150 s contact, 500 s dissociation, 30 μl/min, 25 °C, HBS-P+ pH 7.4; 1:1 Langmuir model. The conditions noted are these: both partners purified.
Experiment [4] has the same target. The experiment can be described thus: SPR; Biacore T200; antibody as human IgG1 captured with an anti-human capture kit on CM5 to 200 RU; TRBC1 or TRBC2 as analyte, 150 s contact, 300 s dissociation, 30 μl/min, 25 °C, HBS-P+ pH 7.4; 1:1 Langmuir model. The conditions noted are these: both partners purified. For orientation: SPR reads the build-up and loss of mass on a sensor chip optically.

In experiment [5] the target is T3, Recombinant, purified TRBC2 (soluble αβ TCR with the β-chain constant domain TRBC2), SPR analyte (Homo sapiens, HA1.7 TCR with TRBC2).
T3 construct: also called recombinant TRBC2; source: recombinant, purified
Described as above. The conditions noted are these: both partners purified.

The target in experiment [6] is T3, Recombinant, purified TRBC2 (soluble αβ …). The experiment in a line: not stated; bi-paratopic (avid) engagement allowed; Supplementary Fig. 12.
Experiment [7] deals with TCR with the TRBC2 β-chain constant domain, on cells (Homo sapiens, UniProt P01848;A0A5B9). The experiment in a line: flow cytometry on cells; staining of TCR+ cell lines with HuJovi-1 or KFN. The conditions noted are these: one partner purified. (In flow cytometry, cells or beads pass a laser one at a time.)
Chain of TCR with the TRBC2 β-chain constant domain, on cells (A0A5B9 whole entry, looked up, chain 1 of 2, the tested form may be a part): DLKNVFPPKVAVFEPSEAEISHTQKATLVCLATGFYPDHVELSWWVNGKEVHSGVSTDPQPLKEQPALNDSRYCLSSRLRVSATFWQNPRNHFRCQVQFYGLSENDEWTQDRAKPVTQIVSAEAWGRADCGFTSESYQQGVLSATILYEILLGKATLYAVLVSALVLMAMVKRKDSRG
Chain of TCR with the TRBC2 β-chain constant domain, on cells (P01848 whole entry, looked up, chain 2 of 2, the tested form may be a part): as the sequence (P01848 whole entry, chain 1 of 2, the tested form may be a part) above
In experiment [8] the target is T3, Recombinant, purified TRBC2 (soluble αβ …). The experiment in a line: SPR; Biacore T200; scFv-Fc captured on a Series S Protein A chip to 50 RU; TRBC1 or TRBC2 as analyte, 150 s contact, 500 s dissociation, 30 μl/min, 25 °C, HBS-P+ pH 7.4; 1:1 Langmuir model. The conditions noted are these: both partners purified.
Experiment [9] has as its target T1, TCR with the TRBC1 β-chain constant …. The experiment in a line: flow cytometry on cells; HPB-ALL TRBC1, HPB-ALL TRBC2 or HPB-ALL TCR KO cells; titration of IgG from 10 μg/ml in 2-fold dilutions, 30 min RT; anti-human IgG Alexa Fluor 647. The conditions noted are these: one partner purified.
Target sequence in this assay (P01850 whole entry, looked up, chain 1 of 2, the tested form may be a part): as the sequence (P01850 whole entry, chain 2 of 2, the tested form may be a part) above
Target sequence in this assay (P01848 whole entry, looked up, chain 2 of 2, the tested form may be a part): as the sequence (P01848 whole entry, chain 1 of 2, the tested form may be a part) above

B1: MuJovi-1 (antibody, V domains shown)
VH: EVRLQQSGPDLIKPGASVKMSCKASGYTFTGYVMHWVKQRPGQGLEWIGFINPYNDDIQSNERFRGKATLTSDKSSTTAYMELSSLTSEDSAVYYCARGAGYNFDGAYRFFDFWGQGTTLTVSS
VL: DVVMTQSPLSLPVSLGDQASISCRSSQRLVHSNGNTYLHWYLQKPGQSPKLLIYRVSNRFPGVPDRFSGSGSGTDFTLKISRVEAEDLGIYFCSQSTHVPYTFGGGTKLEIK
As to B1, the binding result in experiment [1] is recorded as “binds”. For the same molecule, the Kd in experiment [2] came to 1.6 nM.

B2: HuJovi-1 scFv-Fc (scFv, V domains shown)
VH: QVQLVQSGAEVKKPGASVKVSCKASGYTFTGYVMHWVRQAPGQGLEWMGFINPYNDDIQSNERFRGRVTMTRDTSISTAYMELSRLRSDDTAVYYCARGAGYNFDGAYRFFDFWGQGTMVTVSS
VL: DIVMTQSPLSLPVTPGEPASISCRSSQRLVHSNGNTYLHWYLQKPGQSPRLLIYRVSNRFPGVPDRFSGSGSGTDFTLKISRVEAEDVGVYYCSQSTHVPYTFGQGTKLEIK
notes: scFv of HuJovi-1: VH and VL as in m1 (PDB 7AMP, 7AMQ); scFv-Fc with a murine IgG2a Fc; captured on a Protein A chip; source: ExpiCHO, transient transfection, purified (MabSelect SuRe)
In the case of B2, in experiment [3], the Kd was 7.51 nM and the koff amounted to 0.003 s⁻¹.

B3: Mut6 (HuJovi-1 VH A96N), human IgG1 (antibody, V domains shown)
VH: QVQLVQSGAEVKKPGASVKVSCKASGYTFTGYVMHWVRQAPGQGLEWMGFINPYNDDIQSNERFRGRVTMTRDTSISTAYMELSRLRSDDTAVYYCARGNGYNFDGAYRFFDFWGQGTMVTVSS
VL: DIVMTQSPLSLPVTPGEPASISCRSSQRLVHSNGNTYLHWYLQKPGQSPRLLIYRVSNRFPGVPDRFSGSGSGTDFTLKISRVEAEDVGVYYCSQSTHVPYTFGQGTKLEIK
notes: as the VH of m1 with the stated change; positions in Kabat numbering; constant region of the human IgG1 heavy chain; as the light chain of m1; IgG1; source: ExpiCHO, transient transfection, purified (MabSelect SuRe)
In the case of B3, the Kd in [4] came to 13.8 nM; in experiment [5] it was 379 nM. The koff was found to be 0.00197 s⁻¹ in experiment [4] and 0.00194 s⁻¹ in experiment [5].

B4: Mut7 (HuJovi-1 VH T28K, A96N), human IgG1 (antibody, V domains shown)
VH: QVQLVQSGAEVKKPGASVKVSCKASGYKFTGYVMHWVRQAPGQGLEWMGFINPYNDDIQSNERFRGRVTMTRDTSISTAYMELSRLRSDDTAVYYCARGNGYNFDGAYRFFDFWGQGTMVTVSS
VL: DIVMTQSPLSLPVTPGEPASISCRSSQRLVHSNGNTYLHWYLQKPGQSPRLLIYRVSNRFPGVPDRFSGSGSGTDFTLKISRVEAEDVGVYYCSQSTHVPYTFGQGTKLEIK
notes: as the VH of m1 with the stated changes; positions in Kabat numbering; constant region of the human IgG1 heavy chain; as the light chain of m1; IgG1; source: ExpiCHO, transient transfection, purified (MabSelect SuRe)
For B4, in experiment [4], the Kd worked out at 36.5 nM and the koff worked out at 0.00524 s⁻¹. In experiment [5], the Kd was 395 nM and the dissociation rate constant (koff) is 0.166 s⁻¹.

B5: Mut5 (HuJovi-1 VH Y32F), human IgG1 (antibody, V domains shown)
VH: QVQLVQSGAEVKKPGASVKVSCKASGYTFTGFVMHWVRQAPGQGLEWMGFINPYNDDIQSNERFRGRVTMTRDTSISTAYMELSRLRSDDTAVYYCARGAGYNFDGAYRFFDFWGQGTMVTVSS
VL: DIVMTQSPLSLPVTPGEPASISCRSSQRLVHSNGNTYLHWYLQKPGQSPRLLIYRVSNRFPGVPDRFSGSGSGTDFTLKISRVEAEDVGVYYCSQSTHVPYTFGQGTKLEIK
notes: as for B3
For B5, in experiment [4], the dissociation constant Kd was 426 nM and the koff was 0.0457 s⁻¹.

B6: RFN (Mut4; HuJovi-1 VH T28R, Y32F, A96N), human IgG1 (antibody, V domains shown)
VH: QVQLVQSGAEVKKPGASVKVSCKASGYRFTGFVMHWVRQAPGQGLEWMGFINPYNDDIQSNERFRGRVTMTRDTSISTAYMELSRLRSDDTAVYYCARGNGYNFDGAYRFFDFWGQGTMVTVSS
VL: DIVMTQSPLSLPVTPGEPASISCRSSQRLVHSNGNTYLHWYLQKPGQSPRLLIYRVSNRFPGVPDRFSGSGSGTDFTLKISRVEAEDVGVYYCSQSTHVPYTFGQGTKLEIK
notes: as the VH of m1 with the stated changes; positions in Kabat numbering; constant region of the human IgG1 heavy chain; as the light chain of m1; IgG1 in the SPR; also called Arg28/Phe32/Asn96; source: ExpiCHO, transient transfection, purified (MabSelect SuRe)
As to B6, the Kd was determined as 1440 nM in experiment [4] and 582 nM in experiment [5]. For the same molecule, the values for the koff in experiment [4] and in experiment [5] were 0.125 s⁻¹ and 0.045 s⁻¹, respectively.

B7: KFN (Mut3; HuJovi-1 VH T28K, Y32F, A96N), human IgG1 (antibody, V domains shown)
VH: QVQLVQSGAEVKKPGASVKVSCKASGYKFTGFVMHWVRQAPGQGLEWMGFINPYNDDIQSNERFRGRVTMTRDTSISTAYMELSRLRSDDTAVYYCARGNGYNFDGAYRFFDFWGQGTMVTVSS
VL: DIVMTQSPLSLPVTPGEPASISCRSSQRLVHSNGNTYLHWYLQKPGQSPRLLIYRVSNRFPGVPDRFSGSGSGTDFTLKISRVEAEDVGVYYCSQSTHVPYTFGQGTKLEIK
notes: VH of KFN: as the VH of m1 (PDB 7AMP, 7AMQ) with the stated changes, positions in Kabat numbering; constant region of the human IgG1 heavy chain; as the light chain of m1; IgG1; also called Lys28/Phe32/Asn96; aTRBC2; source: ExpiCHO, transient transfection, purified (MabSelect SuRe)
In the case of B7, the “fold affinity differential TRBC1:TRBC2 with bi-paratopic engagement” value in [6] was over 100 fold. The binding result in experiment [7] is “binds”. Besides, in experiment [5], the Kd is 479 nM and the koff was determined as 0.0386 s⁻¹.

B8: Mut2 (HuJovi-1 VH T28K, Y32F), human IgG1 (antibody, V domains shown)
VH: QVQLVQSGAEVKKPGASVKVSCKASGYKFTGFVMHWVRQAPGQGLEWMGFINPYNDDIQSNERFRGRVTMTRDTSISTAYMELSRLRSDDTAVYYCARGAGYNFDGAYRFFDFWGQGTMVTVSS
VL: DIVMTQSPLSLPVTPGEPASISCRSSQRLVHSNGNTYLHWYLQKPGQSPRLLIYRVSNRFPGVPDRFSGSGSGTDFTLKISRVEAEDVGVYYCSQSTHVPYTFGQGTKLEIK
notes: as the VH of m1 with the stated changes; positions in Kabat numbering; constant region of the human IgG1 heavy chain; as the light chain of m1; IgG1; also called Lys28/Phe32; Thr28Lys, Tyr32Phe double mutant; source: ExpiCHO, transient transfection, purified (MabSelect SuRe)
For the molecule B8, the values for the Kd in [4] and in experiment [5] were 387 nM and 999 nM, respectively. The figures for the koff in experiment [4] and in experiment [5] were 0.0689 s⁻¹ and 0.125 s⁻¹, respectively.

B9: KFN scFv-Fc (scFv, V domains shown)
VH: QVQLVQSGAEVKKPGASVKVSCKASGYKFTGFVMHWVRQAPGQGLEWMGFINPYNDDIQSNERFRGRVTMTRDTSISTAYMELSRLRSDDTAVYYCARGNGYNFDGAYRFFDFWGQGTMVTVSS
VL: DIVMTQSPLSLPVTPGEPASISCRSSQRLVHSNGNTYLHWYLQKPGQSPRLLIYRVSNRFPGVPDRFSGSGSGTDFTLKISRVEAEDVGVYYCSQSTHVPYTFGQGTKLEIK
notes: scFv of KFN: VH and VL as in m6 (PDB 7AMS, 7AMR), that is the VH of m1 with the stated changes (Kabat numbering); scFv-Fc with a murine IgG2a Fc; captured on a Protein A chip; source: ExpiCHO, transient transfection, purified (MabSelect SuRe)
Consider B9, for which, in [8], the Kd came out at 1170 nM and the koff came to 0.0995 s⁻¹.

B10: HuJovi-1 (humanized Jovi-1), human IgG1 (antibody, V domains shown)
VH: QVQLVQSGAEVKKPGASVKVSCKASGYTFTGYVMHWVRQAPGQGLEWMGFINPYNDDIQSNERFRGRVTMTRDTSISTAYMELSRLRSDDTAVYYCARGAGYNFDGAYRFFDFWGQGTMVTVSS
VL: DIVMTQSPLSLPVTPGEPASISCRSSQRLVHSNGNTYLHWYLQKPGQSPRLLIYRVSNRFPGVPDRFSGSGSGTDFTLKISRVEAEDVGVYYCSQSTHVPYTFGQGTKLEIK
notes: VH of HuJovi-1 (CDRs of Jovi-1 grafted on IGHV1-2*02); constant region of the human IgG1 heavy chain; whole light chain (CDRs of Jovi-1 grafted on IGKV2-29*02, kappa constant from the AbVec kappa vector); IgG1; The section on CDR grafting names HEK293T as host, the section on antibody expression ExpiCHO; also called aTRBC1; source: ExpiCHO, transient transfection, purified (MabSelect SuRe)
For B10, in [4], the Kd is 2.57 nM and the koff came out at 0.000618 s⁻¹. Moreover, the binding result in experiment [9] is on record as “binds”.

B11: Mut1 (HuJovi-1 VH T28K), human IgG1 (antibody, V domains shown)
VH: QVQLVQSGAEVKKPGASVKVSCKASGYKFTGYVMHWVRQAPGQGLEWMGFINPYNDDIQSNERFRGRVTMTRDTSISTAYMELSRLRSDDTAVYYCARGAGYNFDGAYRFFDFWGQGTMVTVSS
VL: DIVMTQSPLSLPVTPGEPASISCRSSQRLVHSNGNTYLHWYLQKPGQSPRLLIYRVSNRFPGVPDRFSGSGSGTDFTLKISRVEAEDVGVYYCSQSTHVPYTFGQGTKLEIK
notes: as the VH of m1 with the stated change; positions in Kabat numbering; constant region of the human IgG1 heavy chain; as the light chain of m1; IgG1; also called Lys28 mutant; Thr28Lys; source: ExpiCHO, transient transfection, purified (MabSelect SuRe)
For B11, in experiment [4], the Kd was determined as 6.69 nM and the koff amounted to 0.001 s⁻¹. Besides, in [5], the Kd was found to be 7480 nM and the koff was 0.585 s⁻¹.

By Kd is commonly meant the free concentration of one partner at which half of the binding sites on the other are occupied at equilibrium, for simple one-to-one binding. As usually defined, the koff is the rate constant with which the complex falls apart.
